Results: publication PMC3688935, “Coordinated Binding of Single-Stranded and Double-Stranded DNA by UvsX Recombinase”

Molecular target: UvsX recombinase (bacteriophage T4, UniProt P04529 1-391)
Experiment: fluorescence quenching; no nucleotide cofactor; 20 mM Tris-HCl pH 7.4, 50 mM NaCl, 3 mM MgCl2, 25 C; DNA in nucleotides or base pairs; quadratic fit with 4 nt (bp) site size
Details: protein: recombinant; tags: none stated (pET27b, E. coli BL21(DE3)); label: AlexaFluor 546 on X (position 23); single strand

UvsX recombinase, sequence (P04529 whole entry): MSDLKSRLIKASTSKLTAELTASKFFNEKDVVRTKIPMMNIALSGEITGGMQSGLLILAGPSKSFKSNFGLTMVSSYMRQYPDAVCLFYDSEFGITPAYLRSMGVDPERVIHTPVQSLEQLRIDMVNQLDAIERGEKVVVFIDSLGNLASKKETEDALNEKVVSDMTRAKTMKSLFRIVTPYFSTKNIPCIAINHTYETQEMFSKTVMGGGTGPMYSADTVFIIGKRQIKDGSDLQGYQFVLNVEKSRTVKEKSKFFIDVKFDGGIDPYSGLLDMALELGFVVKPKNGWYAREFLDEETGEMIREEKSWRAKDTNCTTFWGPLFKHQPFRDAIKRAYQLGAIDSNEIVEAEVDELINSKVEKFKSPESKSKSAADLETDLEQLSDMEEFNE

B1: dT22XT2 ssDNA (ssDNA)
DNA: TTTTTTTTTTTTTTTTTTTTTTTTT
modifications: X at position 23 = amino-modifier C2 dT
B1: binds.
